Data from patent US11946041B2, “Modification of polypeptides” (BicycleRD Limited, priority 2017, dated 2024).
Each block holds one sequence with its values, some of them ahead of it.

Legend:
CCR4 [1] = target: T1, CCR4 (Homo sapiens, UniProt P51679); test: PathHunter eXpress CCR4 CHO-K1 β-Arrestin GPCR Assay, agonist format; type: cell-based
T1 construct: host or cells: CHO-K1
T1 sequence (P51679 1-360): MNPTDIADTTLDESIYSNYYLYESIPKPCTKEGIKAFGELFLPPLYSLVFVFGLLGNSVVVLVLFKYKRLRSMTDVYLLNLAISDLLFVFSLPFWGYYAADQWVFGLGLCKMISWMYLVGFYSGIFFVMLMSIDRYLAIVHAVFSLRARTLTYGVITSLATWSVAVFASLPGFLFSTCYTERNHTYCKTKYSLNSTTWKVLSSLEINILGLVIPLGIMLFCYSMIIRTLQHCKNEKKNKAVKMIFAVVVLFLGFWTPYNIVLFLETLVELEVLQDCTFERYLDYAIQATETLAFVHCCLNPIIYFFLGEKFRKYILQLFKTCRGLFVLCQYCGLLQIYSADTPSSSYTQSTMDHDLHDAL
Protocol: (§1) The aim of the present experiment was to analyze if if these peptides are functional using a Discoverx Assay, the Beta-Arrestin recruitment assay, to identify agonism or antagonism in the selected peptides.
(§2) Standard protocols used: • PathHunter® eXpress CCR4 CHO-K1 β-Arrestin GPCR Assay. 100 dp (1×96-well)
(§3) The experiment was carried using the manufacturer instructions.
The concentration was increased to test for response at high concentration.

CCR4 [2] = target: T1, CCR4; test: PathHunter eXpress CCR4 CHO-K1 β-Arrestin GPCR Assay, antagonist format with CCL22; type: cell-based; conditions: for antagonist for CCR4: 1 nM CCL22
Protocol: as §1, §2, §3
We therefore used the assay in an antagonist format, using 10 nM CCL22.
We repeated this experiment lowering the concentration of CCL22 from 10 nM to 1 nM to show a full inhibition curve.

Raw Data (CCR4 [1]; 0.006 nM): 28548 | Raw Data (CCR4 [1]; 0.02 nM): 25603 | Raw Data (CCR4 [1]; 0.06 nM): 30232 | Raw Data (CCR4 [1]; 0.17 nM): 28531 | Raw Data (CCR4 [1]; 0.51 nM): 32968 | Raw Data (CCR4 [1]; 1.5 nM): 30785 | Raw Data (CCR4 [1]; 4.6 nM): 27510 | Raw Data (CCR4 [1]; 13.9 nM): 24521 | Raw Data (CCR4 [1]; 41.7 nM): 24892 | Raw Data (CCR4 [1]; 125 nM): 21899 | Raw Data (CCR4 [1]; 375 nM): 20214 | Raw Data (CCR4 [1]; high concentration, 0.001 uM): 10817 | Raw Data (CCR4 [1]; high concentration, 0.003 uM): 11788 | Raw Data (CCR4 [1]; high concentration, 0.008 uM): 12385 | Raw Data (CCR4 [1]; high concentration, 0.023 uM): 12607 | Raw Data (CCR4 [1]; high concentration, 0.1 uM): 12143 | Raw Data (CCR4 [1]; high concentration, 0.2 uM): 13151 | Raw Data (CCR4 [1]; high concentration, 0.6 uM): 12839 | Raw Data (CCR4 [1]; high concentration, 1.9 uM): 12725 | Raw Data (CCR4 [1]; high concentration, 5.6 uM): 12720 | Raw Data (CCR4 [1]; high concentration, 16.7 uM): 12239 | Raw Data (CCR4 [1]; high concentration, 50 uM): 13314 | antagonist for CCR4 (CCR4 [2]): antagonist | Raw Data (CCR4 [2]; 1 nM CCL22, 0.001 uM): 240299 | Raw Data (CCR4 [2]; 1 nM CCL22, 0.003 uM): 222439 | Raw Data (CCR4 [2]; 1 nM CCL22, 0.008 uM): 212749 | Raw Data (CCR4 [2]; 1 nM CCL22, 0.023 uM): 212035 | Raw Data (CCR4 [2]; 1 nM CCL22, 0.1 uM): 215827 | Raw Data (CCR4 [2]; 1 nM CCL22, 0.2 uM): 201484 | Raw Data (CCR4 [2]; 1 nM CCL22, 0.6 uM): 200525 | Raw Data (CCR4 [2]; 1 nM CCL22, 1.9 uM): 198268 | Raw Data (CCR4 [2]; 1 nM CCL22, 5.6 uM): 171795 | Raw Data (CCR4 [2]; 1 nM CCL22, 16.7 uM): 116828 | Raw Data (CCR4 [2]; 1 nM CCL22, 50 uM): 102610 | Raw Data (CCR4 [2]; 10 nM CCL22, 0.001 uM): 163937 | Raw Data (CCR4 [2]; 10 nM CCL22, 0.003 uM): 138339 | Raw Data (CCR4 [2]; 10 nM CCL22, 0.008 uM): 156373 | Raw Data (CCR4 [2]; 10 nM CCL22, 0.023 uM): 159753 | Raw Data (CCR4 [2]; 10 nM CCL22, 0.1 uM): 168602 | Raw Data (CCR4 [2]; 10 nM CCL22, 0.2 uM): 151985 | Raw Data (CCR4 [2]; 10 nM CCL22, 0.6 uM): 158845 | Raw Data (CCR4 [2]; 10 nM CCL22, 1.9 uM): 143688 | Raw Data (CCR4 [2]; 10 nM CCL22, 5.6 uM): 150686 | Raw Data (CCR4 [2]; 10 nM CCL22, 16.7 uM): 132736 | Raw Data (CCR4 [2]; 10 nM CCL22, 50 uM): 138731
Sequence: ACQLTCLTPARQPGCA [24-14-00-N001, bicyclic peptide ligand, TATA scaffold, from CCR4 cell-based selection]

Raw Data (CCR4 [1]; 0.006 nM): 31416 | Raw Data (CCR4 [1]; 0.02 nM): 30201 | Raw Data (CCR4 [1]; 0.06 nM): 30311 | Raw Data (CCR4 [1]; 0.17 nM): 27668 | Raw Data (CCR4 [1]; 0.51 nM): 34202 | Raw Data (CCR4 [1]; 1.5 nM): 31584 | Raw Data (CCR4 [1]; 4.6 nM): 28872 | Raw Data (CCR4 [1]; 13.9 nM): 27830 | Raw Data (CCR4 [1]; 41.7 nM): 26640 | Raw Data (CCR4 [1]; 125 nM): 25288 | Raw Data (CCR4 [1]; 375 nM): 22486 | Raw Data (CCR4 [1]; high concentration, 0.001 uM): 10679 | Raw Data (CCR4 [1]; high concentration, 0.003 uM): 11299 | Raw Data (CCR4 [1]; high concentration, 0.008 uM): 11106 | Raw Data (CCR4 [1]; high concentration, 0.023 uM): 12540 | Raw Data (CCR4 [1]; high concentration, 0.1 uM): 13063 | Raw Data (CCR4 [1]; high concentration, 0.2 uM): 13783 | Raw Data (CCR4 [1]; high concentration, 0.6 uM): 13041 | Raw Data (CCR4 [1]; high concentration, 1.9 uM): 13661 | Raw Data (CCR4 [1]; high concentration, 5.6 uM): 12922 | Raw Data (CCR4 [1]; high concentration, 16.7 uM): 12407 | Raw Data (CCR4 [1]; high concentration, 50 uM): 12457 | Raw Data (CCR4 [2]; 1 nM CCL22, 0.001 uM): 205771 | Raw Data (CCR4 [2]; 1 nM CCL22, 0.003 uM): 230925 | Raw Data (CCR4 [2]; 1 nM CCL22, 0.008 uM): 216507 | Raw Data (CCR4 [2]; 1 nM CCL22, 0.023 uM): 200429 | Raw Data (CCR4 [2]; 1 nM CCL22, 0.1 uM): 190863 | Raw Data (CCR4 [2]; 1 nM CCL22, 0.2 uM): 196279 | Raw Data (CCR4 [2]; 1 nM CCL22, 0.6 uM): 195159 | Raw Data (CCR4 [2]; 1 nM CCL22, 1.9 uM): 184486 | Raw Data (CCR4 [2]; 1 nM CCL22, 5.6 uM): 225342 | Raw Data (CCR4 [2]; 1 nM CCL22, 16.7 uM): 123432 | Raw Data (CCR4 [2]; 1 nM CCL22, 50 uM): 101311 | Raw Data (CCR4 [2]; 10 nM CCL22, 0.001 uM): 162386 | Raw Data (CCR4 [2]; 10 nM CCL22, 0.003 uM): 192263 | Raw Data (CCR4 [2]; 10 nM CCL22, 0.008 uM): 193071 | Raw Data (CCR4 [2]; 10 nM CCL22, 0.023 uM): 176223 | Raw Data (CCR4 [2]; 10 nM CCL22, 0.1 uM): 168443 | Raw Data (CCR4 [2]; 10 nM CCL22, 0.2 uM): 197817 | Raw Data (CCR4 [2]; 10 nM CCL22, 0.6 uM): 207362 | Raw Data (CCR4 [2]; 10 nM CCL22, 1.9 uM): 197426 | Raw Data (CCR4 [2]; 10 nM CCL22, 5.6 uM): 164381 | Raw Data (CCR4 [2]; 10 nM CCL22, 16.7 uM): 163675 | Raw Data (CCR4 [2]; 10 nM CCL22, 50 uM): 134429
Sequence: ACLSCARHGNQCA [24-12-00-N001, bicyclic peptide ligand, TATA scaffold, from CCR4 cell-based selection]

Raw Data (CCR4 [1]; 0.006 nM): 28566 | Raw Data (CCR4 [1]; 0.02 nM): 27298 | Raw Data (CCR4 [1]; 0.06 nM): 26888 | Raw Data (CCR4 [1]; 0.17 nM): 28025 | Raw Data (CCR4 [1]; 0.51 nM): 31189 | Raw Data (CCR4 [1]; 1.5 nM): 30670 | Raw Data (CCR4 [1]; 4.6 nM): 27635 | Raw Data (CCR4 [1]; 13.9 nM): 25509 | Raw Data (CCR4 [1]; 41.7 nM): 24463 | Raw Data (CCR4 [1]; 125 nM): 22916 | Raw Data (CCR4 [1]; 375 nM): 24222 | Raw Data (CCR4 [1]; high concentration, 0.001 uM): 10900 | Raw Data (CCR4 [1]; high concentration, 0.003 uM): 11501 | Raw Data (CCR4 [1]; high concentration, 0.008 uM): 12079 | Raw Data (CCR4 [1]; high concentration, 0.023 uM): 12121 | Raw Data (CCR4 [1]; high concentration, 0.1 uM): 13265 | Raw Data (CCR4 [1]; high concentration, 0.2 uM): 13225 | Raw Data (CCR4 [1]; high concentration, 0.6 uM): 13586 | Raw Data (CCR4 [1]; high concentration, 1.9 uM): 13457 | Raw Data (CCR4 [1]; high concentration, 5.6 uM): 13067 | Raw Data (CCR4 [1]; high concentration, 16.7 uM): 13469 | Raw Data (CCR4 [1]; high concentration, 50 uM): 10917 | range of antagonism activity (CCR4 [2]): micromolar range | antagonist for CCR4 (CCR4 [2]): antagonist | Raw Data (CCR4 [2]; 1 nM CCL22, 0.001 uM): 244512 | Raw Data (CCR4 [2]; 1 nM CCL22, 0.003 uM): 269008 | Raw Data (CCR4 [2]; 1 nM CCL22, 0.008 uM): 278839 | Raw Data (CCR4 [2]; 1 nM CCL22, 0.023 uM): 265078 | Raw Data (CCR4 [2]; 1 nM CCL22, 0.1 uM): 267763 | Raw Data (CCR4 [2]; 1 nM CCL22, 0.2 uM): 233858 | Raw Data (CCR4 [2]; 1 nM CCL22, 0.6 uM): 230668 | Raw Data (CCR4 [2]; 1 nM CCL22, 1.9 uM): 210573 | Raw Data (CCR4 [2]; 1 nM CCL22, 5.6 uM): 168855 | Raw Data (CCR4 [2]; 1 nM CCL22, 16.7 uM): 47343 | Raw Data (CCR4 [2]; 1 nM CCL22, 50 uM): 37690 | IC80 (CCR4 [2]; 10 nM CCL22): 14 µM | Raw Data (CCR4 [2]; 10 nM CCL22, 0.001 uM): 166495 | Raw Data (CCR4 [2]; 10 nM CCL22, 0.003 uM): 152456 | Raw Data (CCR4 [2]; 10 nM CCL22, 0.008 uM): 159966 | Raw Data (CCR4 [2]; 10 nM CCL22, 0.023 uM): 163145 | Raw Data (CCR4 [2]; 10 nM CCL22, 0.1 uM): 162443 | Raw Data (CCR4 [2]; 10 nM CCL22, 0.2 uM): 160790 | Raw Data (CCR4 [2]; 10 nM CCL22, 0.6 uM): 164042 | Raw Data (CCR4 [2]; 10 nM CCL22, 1.9 uM): 149995 | Raw Data (CCR4 [2]; 10 nM CCL22, 5.6 uM): 119202 | Raw Data (CCR4 [2]; 10 nM CCL22, 16.7 uM): 94688 | Raw Data (CCR4 [2]; 10 nM CCL22, 50 uM): 55746
Sequence: ACQLTCLPPPRQPGCA [24-15-00-N001, bicyclic peptide ligand, TATA scaffold, from CCR4 cell-based selection]
